Measured values: US20200317817A1 (XOMA US, published 2020)
Residue numbers refer to the chain shown, from its start. Blank lines part the entries; values can stand above or below the molecule they belong to.

Tests used:
[1] = target: T1, human PTH1R overexpressed on CHO cells (human, UniProt Q03431 27-593); assay: cell-based or functional assay
T1 sequence (looked up): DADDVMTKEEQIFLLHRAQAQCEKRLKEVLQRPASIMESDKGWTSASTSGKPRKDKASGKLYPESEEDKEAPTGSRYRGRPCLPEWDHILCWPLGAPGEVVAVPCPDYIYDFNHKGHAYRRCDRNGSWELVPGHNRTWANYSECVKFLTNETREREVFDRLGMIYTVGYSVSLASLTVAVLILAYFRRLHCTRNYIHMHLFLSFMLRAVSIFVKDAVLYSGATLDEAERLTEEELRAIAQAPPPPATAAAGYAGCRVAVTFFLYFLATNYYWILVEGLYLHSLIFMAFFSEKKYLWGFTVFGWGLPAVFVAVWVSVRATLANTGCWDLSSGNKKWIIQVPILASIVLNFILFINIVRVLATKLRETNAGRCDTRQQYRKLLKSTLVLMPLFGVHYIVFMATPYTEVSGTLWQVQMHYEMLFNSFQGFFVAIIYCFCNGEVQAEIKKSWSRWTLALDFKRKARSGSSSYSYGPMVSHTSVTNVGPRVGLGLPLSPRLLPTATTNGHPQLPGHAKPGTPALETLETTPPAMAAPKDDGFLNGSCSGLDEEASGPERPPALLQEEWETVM

[2] = target: T2, rat PTH1R on UMR106 cells (rat, UniProt P25961 27-591); assay: cell-based or functional assay
T2 sequence (looked up): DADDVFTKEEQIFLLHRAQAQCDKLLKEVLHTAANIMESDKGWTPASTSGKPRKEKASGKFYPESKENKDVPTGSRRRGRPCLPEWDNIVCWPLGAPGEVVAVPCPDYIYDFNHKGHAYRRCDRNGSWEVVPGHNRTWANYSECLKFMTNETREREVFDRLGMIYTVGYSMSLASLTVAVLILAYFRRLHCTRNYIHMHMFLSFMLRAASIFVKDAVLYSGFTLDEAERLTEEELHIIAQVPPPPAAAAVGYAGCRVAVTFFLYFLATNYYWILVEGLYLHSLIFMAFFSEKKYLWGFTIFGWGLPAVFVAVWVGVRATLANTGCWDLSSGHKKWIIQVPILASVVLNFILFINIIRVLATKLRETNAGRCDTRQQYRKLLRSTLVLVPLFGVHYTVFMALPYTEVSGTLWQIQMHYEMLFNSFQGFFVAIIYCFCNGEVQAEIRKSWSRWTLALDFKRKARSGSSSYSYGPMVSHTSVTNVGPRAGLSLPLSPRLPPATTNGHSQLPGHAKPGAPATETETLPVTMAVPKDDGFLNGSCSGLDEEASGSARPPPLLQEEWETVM

[3] = target: T3, human PTH1R on Saos-2 cells (endogenous) (human, UniProt Q03431 27-593); assay: cell-based or functional assay
T3 sequence (looked up): T1 sequence (looked up)

[4] = target: T4, mouse PTH1R overexpressed on CHO cells (mouse, UniProt P41593 27-591); assay: cell-based or functional assay
T4 sequence (looked up): T2 sequence (looked up) with S58P, P497L, T518I, T520N, L523I, A528T

[5] = target: T2, rat PTH1R on UMR106 cells; assay: flow cytometry, 1 hr at 4 C
[6] = target: T5, recombinant N-terminal extracellular domain of the human PTH1R receptor (human, UniProt Q03431 27-188, limits assumed); assay: SPR, IgG captured, ECD injected
T5 construct: domain: N-terminal extracellular domain; Bought reagent; also called N-ECD PTH1R; PTH1R N-terminal ECD
T5 sequence (looked up): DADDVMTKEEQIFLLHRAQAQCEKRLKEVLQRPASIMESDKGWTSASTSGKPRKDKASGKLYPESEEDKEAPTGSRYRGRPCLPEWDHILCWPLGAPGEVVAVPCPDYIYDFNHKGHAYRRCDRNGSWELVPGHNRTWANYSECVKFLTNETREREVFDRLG
Experimental: An anti-human IgG-Fc CMS sensor chip (GE Healthcare) was prepared using standard amine coupling as described by the manufacturer's protocol for the capture Ab on a BIACORE 4000 system (GE Healthcare). Briefly, the chip surface was activated with a 10 minute injection at 10 μL/minute of a freshly mixed 1:1 solution of 0.1 M N-Hydroxysuccinimide (NHS) and 0.4 M 1-Ethyl-3-(3-dimethylaminopropyl) carbodiimide hydrochloride (EDC). Following the activation injection, 15 ug/mL anti-human IgG-Fc antibody in acetate pH 4.5 was injected at 10 μL/minute for 10 minutes to achieve a high density capture surface. 7 minutes of 1M Ethanolamine hydrochloride-NaOH pH 8.5 was injected to block the surface. The NHS, EDC, and Ethanolamine used were from the BIACORE Amine Coupling Kit.
Kinetic Analysis was performed using HBS-EP+(Teknova) with 2.5 mg/mL BSA (Sigma Aldrich, St. Louis Mo.). Antibodies were diluted to 0.5 μg/mL and captured to achieve a surface density of 100 to 200 RU. […] Injections were performed at 30 μL/minute for 240 seconds with a 360 second dissociation time. Regeneration was then performed with one 60 second injection 3M MgCl.
The data were analyzed using BIACORE 4000 Evaluation Software and was double referenced by subtracting both the blank flow cell data and the averaged bracketing blank injections. The data was fit by simultaneously fitting the an off-rate (kd) and on-rate (kₐ), and calculating the KD as KD=kd/kₐ.

[7] = target: T1, human PTH1R overexpressed on CHO cells; assay: cell-based or functional assay; remark: listed apart in the source
[8] = target: T4, mouse PTH1R overexpressed on CHO cells; assay: cell-based or functional assay; remark: listed apart in the source

EC50 of PTHrP(1-34), cAMP assay, vehicle only [2]: 0.333 nM
EC50 of PTHrP(1-34), cAMP assay, vehicle only [4]: 0.0431 nM
Molecule: human PTHrP(1-34) (from UniProt P12272 37-70) (peptide)

binding result [5]: binds
Kd [6]: 0.25 nM
koff [6]: 0.00021 s⁻¹
kon [6]: 860000 M⁻¹ s⁻¹
IC50, inhibition of PTH(1-34)-induced cAMP accumulation (curve does not reach a plateau) [7]: 51.2 nM
IC50, inhibition of PTHrP(1-34)-induced cAMP accumulation [7]: 12.4 nM
IC50, inhibition of PTHrP(1-34)-induced cAMP accumulation [8]: 3.32 nM
B5: XPA.85.334 (antibody, V domains shown)
VH: QMQLVQSGAEVKKPGSSVKVSCKASGGTFSSYAISWVRQAPGQGLEWMGGIIPIFGTANYAQKFQGRVTITADESTSTAYMELSSLRSEDTAVYYCARGYVVARLWGQGTLVTVSS
VL: DIVMTQTPLSLSVTPGQPASITCKSSQSLLHIDGKTYLYWFLQKPGQPPQLLIYEVSNRFSGVPDRFSGTGSGTDFTLKISRVEAEDVGVYYCMQSLHFPITFGPGTRLEIK
notes: Light-chain-shuffled variant of XPA.85.012

Second part, the molecule before the results:

Molecule: Human PTH(1-34) (from UniProt P01270 32-65) (peptide)
EC50 of PTH (1-34) induced ERK1/2 phosphorylation without anti-PTH1R antibody [1]: 3.8 nM
EC50 of PTH(1-34), cAMP assay, vehicle only [1]: 0.0307 nM
EC50 of PTH(1-34), cAMP assay, vehicle only [2]: 0.647 nM
EC50 of PTH(1-34), cAMP assay, vehicle only [3]: 0.524 nM
PTH (1-34) dose response without anti-PTH1R antibody, M-CSF secretion by Saos-2 cells [3]: 1.2 nM
EC50 of PTH(1-34), cAMP assay, vehicle only [4]: 0.0306 nM

B1: XPA.85.332 (antibody, V domains shown)
VH: B5 VH
VL: ETTLTQSPAFMSASVGDRVTITCQASQDINNFLNWYQQKPGKAPKFLIYDASNLEKGVPSKFSGRGSGTEFTLTISSLQPEDIATYYCQQYRDFPLTFGQGTRLEIK
notes: as for B5
binding result [5]: binds
Kd [6]: 0.71 nM
koff [6]: 0.0017 s⁻¹
kon [6]: 2.4e+06 M⁻¹ s⁻¹
IC50, inhibition of PTH(1-34)-induced cAMP accumulation [7]: 12.1 nM
IC50, inhibition of PTHrP(1-34)-induced cAMP accumulation [7]: 5.03 nM
IC50, inhibition of PTHrP(1-34)-induced cAMP accumulation [8]: 2.3 nM

B2: XPA.85.333 (antibody, V domains shown)
VH: B5 VH
VL: DVVMTQTPLSLSVTPGQPASISCKSSQSLLHIDGKAYLYWYLQKPGQSPHLLIREVSTRFSGVSDRFTGSGSGTDFTLEISRVEAEDVGVYYCMQGLHLPPTFGQGTKVEIK
notes: as for B5
binding result [5]: binds
Kd [6]: 0.3 nM
koff [6]: 0.00054 s⁻¹
kon [6]: 1.8e+06 M⁻¹ s⁻¹
IC50, inhibition of PTH(1-34)-induced cAMP accumulation [7]: 11.4 nM
IC50, inhibition of PTHrP(1-34)-induced cAMP accumulation [7]: 5.61 nM
IC50, inhibition of PTHrP(1-34)-induced cAMP accumulation [8]: 2.04 nM

B3: XPA.85.344 (antibody, V domains shown)
VH: B5 VH
VL: DVVMTQTPLSLSVTPGQPASFSCKSTQSLLWRDGNTYLYWYLQKPGQSPQLLIYEVSGRFSGVPERFSGSGSGTDFTLEISRVEAEDVGVYYCMQSIHFPLTFGGGTKLEIK
notes: as for B5
binding result [5]: binds
Kd [6]: 0.18 nM
koff [6]: 0.00023 s⁻¹
kon [6]: 1.3e+06 M⁻¹ s⁻¹
IC50, inhibition of PTH(1-34)-induced cAMP accumulation [7]: 15.5 nM
IC50, inhibition of PTHrP(1-34)-induced cAMP accumulation [7]: 15.3 nM
IC50, inhibition of PTHrP(1-34)-induced cAMP accumulation [8]: 3.89 nM

B4: XPA.85.343 (antibody, V domains shown)
VH: B5 VH
VL: B5 VL with I2V, T22S, K35R, F41Y, P45A, T70S, L97I, I101L, P105G, R108K
notes: as for B5
binding result [5]: binds
Kd [6]: 0.42 nM
koff [6]: 0.00045 s⁻¹
kon [6]: 1.1e+06 M⁻¹ s⁻¹
IC50, inhibition of PTH(1-34)-induced cAMP accumulation [7]: 14.4 nM
IC50, inhibition of PTHrP(1-34)-induced cAMP accumulation [7]: 17.8 nM
IC50, inhibition of PTHrP(1-34)-induced cAMP accumulation [8]: 3.87 nM
